The RNAGym collection of RNA variant scans (doi:10.1073/pnas.2313332121)

B1: TPR t1 (parent)
chain: GACCAAUCUGCCCUCAGAGCUCGAGAACAUCUUCGGAUGCAGAGGAGGCAGGCUUCGGUGGCGCGAUAGCGCCAACGUCCUCAACCUCCAAUGCAUCCCACCACAUGAUGAUGCCUGAAGAGCCUUGGUUUUUUG

Variants of: B1
Assay: polymerase ribozyme fitness, log enrichment relative to wild type (log ratio); higher = more active; in vitro selection for triplet polymerase activity
Outline: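 A heterodimeric triplet polymerase ribozyme had each of its subunits mutagenized by PCR into a library, which was transcribed. One round of in vitro selection, done in triplicate, annealed each library with a biotinylated primer, its partner subunit and triplets, then incubated it frozen at −7 °C before gel excision of extended constructs, streptavidin-bead capture and RT-PCR. Fitness is the logarithm of genotype enrichment relative to wild-type enrichment, based on Illumina sequencing of inputs and outputs and inverse-variance-weighted replicate averages. A base-2 logarithm is used, and genotypes were kept only with ≥10 input reads and ≥1 read per output.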
For GACUAAUCUGCCCUCAGAGCUCGAGGAUAUCUUCGGAUGAAGAGGAGGCAGGCUUCGGUGGCGAGAUAGCGCCAACGUCCUCAACCUCCAAUGCAUCCCACCACAUGAUGAUGCCUGAAGAGUCUUGGUUUUUUG [C4U A26G C28U C40A C64A C123U], the “polymerase ribozyme fitness (log ratio)” value was -6.51.
For GACGAAUCUGCCCUCAGAGCUCGAGAACAUCUUCGGAUGCAGAGGAGGCAGGCUUCGGUGUCGCGUUAGCGCCAACGUCCUCAACCUCCAAUGAAUCCCACCACAUGAUGAUGCCUGAAGAGUCUUGGUUUAUUG [C4G G61U A66U C94A C123U U132A], the “polymerase ribozyme fitness (log ratio)” value was -1.51.
In the case of GACUCAUCUGCCCUCAGAGCUCGAGAACAUCUUCGGAUGCAGAGGAGGCAGGCUUCCGUGGCGCGAUUGCGCUAACGUCCUCAACCUCCAAUGCAUCCCACCACAUGAUGAUGCUUGAAGAGCUUUGGUUUUUUG [C4U A5C G57C A68U C73U C115U C124U], the “polymerase ribozyme fitness (log ratio)” value is reported as -6.74.
In the case of GACGAACCUGCCCUCAGAGCUCGAGAACAUCUUCGGAUGCAGAGGAGGCAGGCUUCGGUGGCGCGAUAUCGCCAACGUCCUCAACCUCCAAUGCAUCCCACCACAUGAUGAUGCCUGAAGAGCCUUGGUUUUUUG [C4G U7C G69U], the “polymerase ribozyme fitness (log ratio)” value is reported as -0.0887.
For GACGAAUCUGCCCUCAGAGCUCGAGAACAUCUUCGGAUGCAGAGGAGGCAGGCUUCGGCGGCGCAAUAGCGCCAACGUCCUCAAUCUCCAAUGCAUCCCACCACAUGAUCAUGCCUGAAGAGCCUUGGUUUUUUG [C4G U59C G65A C85U G110C], the “polymerase ribozyme fitness (log ratio)” value was -5.92.
With GACGAAUCUGCCCUCAGAGCUCGAGAACAUCUUCGGAUGCAGAGGAAGCAGGCUUCGGUGGCGCGAUAGCGCCAACGUACUCAACCUCCGAUGCAUCCCACCACAUGAUGAUGCCUGAAAAGCCUUGGUUUUUUG [C4G G47A C79A A90G G120A] the “polymerase ribozyme fitness (log ratio)” value was -3.84.
In the case of GACUAUUCUGCCCUCAGAGCUCGAGAACAUCUUCGGAUGCAGAGGAGGCAGGCUUCGGUGGCGCGAUAGCGCCAACGUCCUCAACCUCCAUUGCAUCCCACCACAUGAUGAUUCCUGAAGAGCCUUGGUUUUUUG [C4U A6U A91U G113U], the “polymerase ribozyme fitness (log ratio)” value is reported as -3.89.
With GACGAAUCGGCCCUCAGAGCUCGAGAACAUCUUCGGAUGCAGUGGAGGCAGGCUUCGGUGGCGCGAUAGCGCCAACGUCCUCAACCUCCAAUGCAUCCCACCACAUGAUGAUGCCUGAAGAGCCUUGGUUUUUUG [C4G U9G A43U] the “polymerase ribozyme fitness (log ratio)” value was -1.6.
With GACUAAUCUGCCCUCAGAGCUCGAGAUCAUCUUCGGAUGCAGAGGAGGCAGGCUUCGGUGGCGUGAUAGCGCCAACGUCCUCAACCUCCAAUGCCUCCCACCACAUGAUGCUGCCUGGAGAGCCUUGGUUUUUUG [C4U A27U C64U A95C A111C A118G] the “polymerase ribozyme fitness (log ratio)” value was -6.19.
With GACGAAUCUGCCCUCAGAGCUCGAGAACAUCUUCGGAUGCAGAGGAGGCAGGCUUCGGUGGCUCGAUAGCGCCAACGUCCUCAACCUCCAAUGCAUCCCACCACAUGAUGAUGCCUGAAGAGACUUGGUUUUUUG [C4G G63U C123A] the “polymerase ribozyme fitness (log ratio)” value was -1.09.
In the case of GACUAAUCUGCCCUCAGGGCUCGAGAACAUCUUCGGAUGCAGAGGAGGCAGGCUUCGAUGGCGCGAUAUCGCCAACGUCCUCAACCUCCAAUGCAUCCCACCACAUGAUGAUGCCUGAAGAGCCUUGGUUUUUUG [C4U A18G G58A G69U], the “polymerase ribozyme fitness (log ratio)” value is reported as -2.44.
With GACGAAUCUGCCCUCAGAGCUCGAGAACAUCUUCGGAUGCAGAGGAGGCAGGCUUCGGUGGCGCGAUAGCGCCAACGUCCUCAACCUCCAAUGCAUCCCACCACAUGAUCAUGCCUGAAGAGCCUUGGUUUUUUG [C4G G110C] the “polymerase ribozyme fitness (log ratio)” value was -5.58.
With GACGAAUCUGCCCUCAGAGCUCGAGAACAUCUUCGGAUGCAGAGGAGGCAGGCUUCGGUGGCGCGAUAGCGCCAACGUCCUCAACCUCCAAUGCAUCCCACCACAUGAUGAUGCCUGAAAAGCCUUGGUUUUUUG [C4G G120A] the “polymerase ribozyme fitness (log ratio)” value was -0.396.
For GACGAAUCUGCCCUCAGAGCUCGAGAACAUCUUCGGAUGCAGAGGAGGCAGGCUUCGGUGGCGCGAUAGCGCCAACGUCCUCAACCUCCAAUGCAUCCCACCACAUGAUGAUGCCUGAACAGCCUUGGUUUUUUG [C4G G120C], the “polymerase ribozyme fitness (log ratio)” value was -1.15.
With GACGAAUCGGCCCUCAGAGCUCGAGAACAUCUUCGGAUGCAGAGGAGGCAGGCUUCGGUGGCGCGAUAGCGCCAACGUCCUCAACCUCCAAUGCAUCCCACCACAUGAUGAUGCCCGAAGAGCCUUGUUUCUUUG [C4G U9G U116C G128U U131C] the “polymerase ribozyme fitness (log ratio)” value was -0.342.
For GACUGAUCUGCCCUCAGAGCUCGAGAACAUCUUCGGAAGCAGAGGAGGCAGGCUUCGGUGGCGCGAUAGUGCCAACGUCCUCAACCUCCAAUGCAUCCCACCACAUGAUGAUGCCUGAAAAGCCUUGGUUUUUUG [C4U A5G U38A C70U G120A], the “polymerase ribozyme fitness (log ratio)” value was -1.12.
For GACUACUCUGCCCUCAGAGCUCGAGAACAUCUUCGGAUGCAGAGGAGUCAGGCUUCGGUGGCGCGAUAUCGCCAACGUCCUCAACUUACAAUGCAUCCCACCACAUGAUGAUCCCUGAAGAGCCUUGGUUUUUUG [C4U A6C G48U G69U C86U C88A G113C], the “polymerase ribozyme fitness (log ratio)” value was -3.07.
In the case of GACUAAUCUGCCCUCAGAGCUCGAGAACCUCUUCGGAUGCAGAGGAGUCAGGCUUGGGUGGCGCGAUAGCGCCAACGUCCUCAACCUCCAAUGCAUCCCACCACAUGAUGAUGCCUGAGGAGCCUUGGUUUUUUG [C4U A29C G48U C56G A119G], the “polymerase ribozyme fitness (log ratio)” value is reported as -3.08.
With GACGAAUCUGCCCUCAGAGCUCGAGAACAUCUUCGGAUGCAGAGGAGGCAGGCUUCCGUGGCGUGAUAGCGCCAACGUCCUCGAUCUCCAAUGCAUCCCACCACAUGAUGAUGCCUGAAGAGCCUUGGUUUUUUG [C4G G57C C64U A83G C85U] the “polymerase ribozyme fitness (log ratio)” value was -3.12.
With GACUAAUCUGCCCUCAGCGCUCGAGAACAUCUUCGGAUGCAGAGGAGGCAGGCUUCGGUGGCGCGAUAGCGCCAACGUCCUCAACCUCCAAUGCAUCCCACCACAUGAUGAUGCCUGAAGAGCCUUGGUUUUUUG [C4U A18C] the “polymerase ribozyme fitness (log ratio)” value was -3.99.
With GACUAUUCUGCCCUCAGAGCUCGAGAACAUCUUCGGAUGCAGAGGAGGCAGGCUUCGGUGGCGCGAUAGCGCCAACGGCCUCAACCUUCAUUGCUUCCCACCACAUGAUGAUGCCUGAAGAGCCUUGGUUUUUUG [C4U A6U U78G C88U A91U A95U] the “polymerase ribozyme fitness (log ratio)” value was -3.57.
